Reference: patent US20240254227A1 (Alector, published 2024)

T1: murine CD300C-Fc (mouse)
T1 construct: mouse IgG2a-Fc fusion (R&D Systems); the entry is the whole fusion chain; also called mCD300C; Mouse CD300C-Fc
T1 chain: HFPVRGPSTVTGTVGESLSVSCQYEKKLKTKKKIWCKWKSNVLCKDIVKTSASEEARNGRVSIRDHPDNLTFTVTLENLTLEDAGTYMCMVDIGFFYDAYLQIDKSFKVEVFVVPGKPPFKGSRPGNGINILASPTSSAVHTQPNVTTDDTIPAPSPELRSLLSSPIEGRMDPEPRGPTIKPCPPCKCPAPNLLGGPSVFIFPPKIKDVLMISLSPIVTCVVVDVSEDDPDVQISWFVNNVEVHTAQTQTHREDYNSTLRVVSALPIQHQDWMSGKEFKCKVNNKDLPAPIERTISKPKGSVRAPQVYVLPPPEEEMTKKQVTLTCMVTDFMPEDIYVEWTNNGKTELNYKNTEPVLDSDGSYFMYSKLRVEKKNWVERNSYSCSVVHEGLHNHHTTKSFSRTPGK

T2: murine CD300E-Fc (mouse)
T2 construct: mouse IgG2a-Fc fusion (R&D Systems); the entry is the whole fusion chain; also called mCD300E; Mouse CD300E-Fc
T2 chain: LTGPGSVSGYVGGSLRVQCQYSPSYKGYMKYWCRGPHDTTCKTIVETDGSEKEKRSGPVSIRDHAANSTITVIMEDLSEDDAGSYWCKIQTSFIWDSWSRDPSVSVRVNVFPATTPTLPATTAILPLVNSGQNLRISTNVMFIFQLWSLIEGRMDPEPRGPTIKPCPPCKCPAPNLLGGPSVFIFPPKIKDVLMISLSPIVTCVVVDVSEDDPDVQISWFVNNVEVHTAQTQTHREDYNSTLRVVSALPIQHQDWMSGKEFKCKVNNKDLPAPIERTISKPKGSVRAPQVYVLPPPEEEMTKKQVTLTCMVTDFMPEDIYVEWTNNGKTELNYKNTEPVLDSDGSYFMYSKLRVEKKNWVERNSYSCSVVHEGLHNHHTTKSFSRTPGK


Key:
[1] = target: T1, murine CD300C-Fc; experiment: SPR (Carterra LSA), antibody immobilised, Fc fusion at 300 or 600 nM
Procedure: (§1) Binding of mouse anti-CD300LB IgG1 antibodies of the present disclosure to human and murine CD300 orthologs were evaluated by surface plasmon resonance (SPR) using a Carterra LSA instrument (Carterra, Salt Lake City, UT). […] A HC200M sensor chip (Carterra) was activated using the single channel flow cell with a 7-minute injection of a 1:1:1 mixture of 100 mM MES pH 5.5, 100 mM sulfo-NHS, 400 mM EDC (all reconstituted in MES pH 5.5; 100 μL of each mixed in vial immediately before running assay). After switching to the multi-channel array flow cell, the antibodies were injected over the activated chip in a 96-spot array for 10 minutes. The remaining unconjugated active groups on the chip were then blocked by injecting 1M Ethanolamine pH 8.5 (Carterra) for 7 minutes using the single channel flow cell. After priming with running buffer (HBS-TE, Carterra) with 0.5 mg/ml BSA (Sigma), the immobilized anti-CD300LB antibodies were tested for their ability to bind human and mouse recombinant CD300LB extracellular domains. Human CD300 family members and mouse CD300A were hIgG1-Fc fusions, while mouse CD300LB, mouse CD300C, mouse CD300D, and mouse CD300E were mouse IgG2a-Fc fusions (R&D Systems). Binding was assessed by injecting each analyte over the entire antibody array using the single channel flow cell. CD300 analytes were diluted to 300 nM or 600 nM in running buffer and injected in series without regeneration. Two or three buffer blanks were run between each mouse or human ortholog, respectively. Data were processed and analyzed using NextGenKIT high-throughput kinetics analysis software (Carterra).
(§2) Results of anti-CD300LB antibody binding to murine CD300 family members is provided below in Table 8.

[2] = target: T2, murine CD300E-Fc; experiment: as above
Procedure: as §1, §2

[3] = target: T3, murine CD300A-Fc (mouse); experiment: as above
T3 construct: hIgG1-Fc fusion; the entry is the whole fusion chain; also called mCD300A; Mouse CD300A-Fc
Procedure: as §1, §2

[4] = target: T2, murine CD300E-Fc; experiment: SPR (Carterra LSA), antibody immobilised
Source text: (§3) In addition to the screening of antibodies for cross-reactivity by FACS analysis, surface plasmon resonance (SPR) analysis was used to determine the binding of antibodies to recombinant huCD300 and muCD300 family members (orthologs) conjugated to an Fc (human CD300A-Fc SEQ ID NO:144; human CD300LB-Fc SEQ ID NO:145; human CD300C-Fc SEQ ID NO: 146; human CD300D-Fc SEQ ID NO: 147; human CD300E-Fc SEQ ID NO: 148; human CD300F-Fc SEQ ID NO: 149; murine CD300A-Fc SEQ ID NO: 150; murine CD300LB-Fc SEQ ID NO:151; murine CD300C-Fc SEQ ID NO: 152; murine CD300D-Fc SEQ ID NO: 153, and murine CD300E-Fc SEQ ID NO: 154).
as §1

[5] = target: T3, murine CD300A-Fc; experiment: SPR (Carterra LSA), antibody immobilised
Source text: as §3, §1

T3 sequence (chain, as listed by the source limits assumed): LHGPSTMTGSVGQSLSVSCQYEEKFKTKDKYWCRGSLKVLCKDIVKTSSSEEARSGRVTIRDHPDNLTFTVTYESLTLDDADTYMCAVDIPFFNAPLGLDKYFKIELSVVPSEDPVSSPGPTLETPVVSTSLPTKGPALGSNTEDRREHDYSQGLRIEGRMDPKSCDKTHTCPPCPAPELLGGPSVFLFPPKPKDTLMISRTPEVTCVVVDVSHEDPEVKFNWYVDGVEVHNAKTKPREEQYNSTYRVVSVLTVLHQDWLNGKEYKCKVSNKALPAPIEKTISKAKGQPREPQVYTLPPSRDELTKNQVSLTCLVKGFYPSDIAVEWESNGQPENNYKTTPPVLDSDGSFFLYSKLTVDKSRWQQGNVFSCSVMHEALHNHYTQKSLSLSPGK

Binder	SPR binding (control subtracted) [1]	SPR binding (control subtracted) [2]	SPR binding (control subtracted) [3]	binding result [4]	binding result [5]
anti-CD300LB antibody CD-14 (antibody, V domains shown) VH: QIQLVQSGPELKKPGETVKISCKASGYTFTDYSLHWVKQTPEKNLKWMAWINTETGAPTYADDFKGRFAFSLETSSNTAYLLINNLKNEDTATYFCALTMVNYWGQGTTLTVSS VL: DIVMTQSQKFMSTSVGDRVSVTCKASQNVGIRVAWHQQKPGQSPKTLIYSTSYRYSGVPDRFTGSGSGTEFILTISNVQSEDLAEYFCQQYNSYPYTFGGGTKLEIK	17.9	3.6	2.7	no binding (tested: 300 nM or 600 nM)	no binding (tested: 300 nM or 600 nM)
anti-CD300LB antibody CD-15 (antibody, V domains shown) VH: QIQLVQSGPELKKPGETVKISCQVSGYTFTDYSMHWLKQAPGKGLKWMAWINTETGESTYTDEFKGRFVFSLETSVRTAYLKINNLKNEDTATYFCGTYGSSYGMAYWGQGTSVTVSS VL: DIVLTQSPASLPVSLGQRATISCRASKSVSTSGSSYLHWYQQKPGQPPKLLIYLASKLESGVPARFRGSGSGTDFTLNIHPVEEEDAATYYCQHNREVPPTFGGGTKLEIK	13.3	0.8	7.1	no binding (tested: 300 nM or 600 nM)	no binding (tested: 300 nM or 600 nM)
anti-CD300LB antibody CD-17 (antibody, V domains shown) VH: QIQLVQSGPELKKPGETVKISCKASGYTLTDYSMHWVKQAPGKGLKWMGWINTETGEPRYGDDFKGRFAFSLETSASSAYLQINNLKNDDTATYFCATYGRSYGMDFWGQGTSVTVSS VL: DIVLTQSPASLAVSLGQRATISCRASKSVSPSGHSYMHWYQQKPGQPPKLLIYLASNLKSGVPARFSGSGSGTDFTLNIHPVEEGDAATYYCQHNRELPPTFGGGSKLEIK	1.5	-0.7	2.9	no binding (tested: 300 nM or 600 nM)	no binding (tested: 300 nM or 600 nM)

Now from value to binder:

SPR binding (control subtracted) [1]	SPR binding (control subtracted) [2]	SPR binding (control subtracted) [3]	binding result [4]	binding result [5]	Binder
34.5	8.6	-1.9	no binding (tested: 300 nM or 600 nM)	no binding (tested: 300 nM or 600 nM)	anti-CD300LB antibody CD-16 (antibody, V domains shown) VH: QIQLVQSGPELKKPGETVKISCKASGYTFTDYSMHWVKQAPGKGLKWMAWINTETGEPTYADDFRGRFAFSLETSGRTAYLEINNLRNEDTATYFCVTYGSSYGMAYWGQGTSVTVSS VL: DIVLTQSPASLAVSLGQRATISCRASKSVSRSGYSYLHWYQQKPGQPPKLLIYLASKLESGVPARFSGSGSGTDFTLNIHPVEAEDAATYYCQHNREIPPTFGGGTKLEIK
1.5	-0.1	2.9	no binding (tested: 300 nM or 600 nM)	no binding (tested: 300 nM or 600 nM)	anti-CD300LB antibody CD-18 (antibody, V domains shown) VH: DVQLQESGPDLVKPSQSLSLTCTVTGYSITSGYSWHWIRQFPDNKLEWMGYILSRGDTNFNPSLKSRISITRSTSNNQFFLHFNSVTTEDTATYYCARDFFDYWGQGTTLTVSS VL: DVLMTQTPLSLPVSLGDQASISCRSSQSIVHSNGNTYLEWYLQKPGQSPKLLIYKVSDRFSGVPDRFSGSGSGTDFTLKISRVEAEDLGVYFCFQGSHVPYTFGGGTKLEIK
